According to patent US20050020492A1 (MERCK, published 2005):
Like-named read-outs stand apart in the source and are kept apart here. Each block holds one binder with its values, some of them ahead of it.

How the values were obtained:
human MCH-2R [1] = biological target: T1, human MCH-2R (human, UniProt Q969V1 1-340); assay: SPA, displacement of [125I]-[Phe13,Tyr19]-hMCH, MCH-2R membranes
T1 construct: Function: 293AEQ17/MCH-2R cells; also called hMCH-2R
Method: (§1) After equilibrating at room temperature for 3 hours, the plates were read in a TopCount (Packard, Meriden, Conn.). IC₅₀ calculations were performed using Prism 3.0 (GraphPad. Software, San Diego, Calif.). The IC₅₀ values were measured in three different experiments.

human MCH-1R [2] = biological target: T2, human MCH-1R (human, UniProt Q99705 1-353); assay: SPA, displacement of [125I]-[Phe13,Tyr19]-hMCH, CHO/MCH-1R membranes
T2 construct: Function: 293AEQ17/MCH-1R cells; also called hMCH-1R
T2 sequence (Q99705 whole entry): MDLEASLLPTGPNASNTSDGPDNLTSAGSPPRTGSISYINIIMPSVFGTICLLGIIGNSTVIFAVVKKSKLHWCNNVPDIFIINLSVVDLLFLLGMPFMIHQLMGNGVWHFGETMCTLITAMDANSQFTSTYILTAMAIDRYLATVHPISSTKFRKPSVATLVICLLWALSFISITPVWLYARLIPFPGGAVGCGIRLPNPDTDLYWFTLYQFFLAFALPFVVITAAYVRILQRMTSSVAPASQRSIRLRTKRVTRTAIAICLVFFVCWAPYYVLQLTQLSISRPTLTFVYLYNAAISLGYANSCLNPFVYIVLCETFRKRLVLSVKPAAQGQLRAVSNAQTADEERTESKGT
Method: as §1

human MCH-1R [3] = biological target: T2, human MCH-1R; assay: cell-based or functional assay
human MCH-2R [4] = biological target: T1, human MCH-2R; assay: cell-based or functional assay
human MCH-2R [5] = biological target: T1, human MCH-2R; assay: SPA, displacement of [125I]-[Phe13,Tyr19]-hMCH, MCH-2R membranes; remark: listed apart in the source
Method: as §1

human MCH-1R [6] = biological target: T2, human MCH-1R; assay: cell-based or functional assay; remark: listed apart in the source
human MCH-2R [7] = biological target: T1, human MCH-2R; assay: cell-based or functional assay; remark: listed apart in the source
human MCH-1R [8] = biological target: T2, human MCH-1R; assay: ratio of the two SPA IC50s

T1 sequence (Q969V1 whole entry): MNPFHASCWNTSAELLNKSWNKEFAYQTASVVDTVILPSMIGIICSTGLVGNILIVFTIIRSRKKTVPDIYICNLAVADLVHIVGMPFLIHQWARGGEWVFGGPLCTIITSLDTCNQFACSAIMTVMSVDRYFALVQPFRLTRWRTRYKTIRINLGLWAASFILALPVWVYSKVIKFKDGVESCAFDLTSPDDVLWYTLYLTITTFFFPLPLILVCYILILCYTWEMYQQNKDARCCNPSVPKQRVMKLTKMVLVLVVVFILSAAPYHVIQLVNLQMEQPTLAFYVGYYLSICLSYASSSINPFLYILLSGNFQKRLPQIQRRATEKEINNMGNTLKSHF

- IC50 (human MCH-2R [1]): 1460 nM
- Activation %, aequorin bioluminescence (human MCH-1R [3]): 115%
- Activation %, aequorin bioluminescence (human MCH-2R [4]): 69%
B2: SEQ. ID. NO. 7 (Ac-D-Nle^6 analog of Ac-hMCH(6-16)-NH2) (peptide)
peptide: XCMLGRVYRPC
modifications: N-terminal acetyl; D-Nle (D-norleucine) at position 6; C-terminal amide; disulfide cycle

- IC50 (human MCH-1R [2]): 1.3 nM
- IC50 (human MCH-2R [5]): 18 nM
- Activation %, aequorin bioluminescence (human MCH-1R [6]): 7%
- EC50, aequorin bioluminescence (human MCH-1R [6]): > 10000 nM
- Activation %, aequorin bioluminescence (human MCH-2R [7]): 105%
- EC50, aequorin bioluminescence (human MCH-2R [7]): 81 nM
- Selectivity 2/1 (MCH-2R/MCH-1R IC50 ratio) (human MCH-1R [8]): 14 ratio
B3: SEQ. ID. NO. 21 (Nal(2′)^10 analog of Ac-hMCH(6-16)-NH2) (peptide)
peptide: RCMLXRVYRPC
HELM: PEPTIDE1{[ac].R.C.M.L.[O=C([C@H](Cc1ccc2ccccc2c1)N[*:1])[*:2]].R.V.Y.R.P.C.[am]}$PEPTIDE1,PEPTIDE1,3:R3-12:R3$$$V2.0
SMILES: CSCC[C@@H]1NC(=O)[C@@H](NC(=O)[C@H](CCCNC(=N)N)NC(C)=O)CSSC[C@@H](C(N)=O)NC(=O)[C@@H]2CCCN2C(=O)[C@H](CCCNC(=N)N)NC(=O)[C@H](Cc2ccc(O)cc2)NC(=O)[C@H](C(C)C)NC(=O)[C@H](CCCNC(=N)N)NC(=O)[C@H](Cc2ccc3ccccc3c2)NC(=O)[C@H](CC(C)C)NC1=O

- Activation %, aequorin bioluminescence (human MCH-1R [3]): 120%
B5: SEQ. ID. NO. 8 (Ac-D-Pro^6 analog of Ac-hMCH(6-16)-NH2) (peptide)
peptide: XCMLGRVYRPC
modifications: N-terminal acetyl; D-Pro at position 6; C-terminal amide; disulfide cycle

- Activation %, aequorin bioluminescence (human MCH-1R [3]): 113%
- EC50, aequorin bioluminescence (human MCH-1R [3]): 260 nM
- Activation %, aequorin bioluminescence (human MCH-2R [4]): 42%
B6: SEQ. ID. NO. 10 (Ac-D-Asn^6 analog of Ac-hMCH(6-16)-NH2) (peptide)
peptide: XCMLGRVYRPC
modifications: N-terminal acetyl; D-Asn at position 6; C-terminal amide; disulfide cycle

- Activation %, aequorin bioluminescence (human MCH-1R [3]): 114%
- EC50, aequorin bioluminescence (human MCH-1R [3]): 160 nM
- Activation %, aequorin bioluminescence (human MCH-2R [4]): 39%
B7: SEQ. ID. NO. 11 (Ac-D-Ser^6 analog of Ac-hMCH(6-16)-NH2) (peptide)
peptide: XCMLGRVYRPC
modifications: N-terminal acetyl; D-Ser at position 6; C-terminal amide; disulfide cycle

- IC50 (human MCH-1R [2]): 0.1 nM
- IC50 (human MCH-2R [5]): 1.9 nM
- Activation %, aequorin bioluminescence (human MCH-1R [6]): 115%
- Selectivity 2/1 (MCH-2R/MCH-1R EC50 activity ratio) (human MCH-1R [6]): 0.4 ratio
- Activation %, aequorin bioluminescence (human MCH-2R [7]): 97%
- Selectivity 2/1 (MCH-2R/MCH-1R IC50 ratio) (human MCH-1R [8]): 21 ratio
B8: SEQ. ID. NO. 18 (Nle^10 analog of Ac-hMCH(6-16)-NH2) (peptide)
peptide: RCMLXRVYRPC
modifications: N-terminal acetyl; Nle (norleucine) at position 10; C-terminal amide; disulfide cycle

- IC50 (human MCH-2R [1]): 1250 nM
- IC50 (human MCH-1R [2]): 0.9 nM
- Activation %, aequorin bioluminescence (human MCH-1R [3]): 117%
- EC50, aequorin bioluminescence (human MCH-1R [3]): 66 nM
- EC50, aequorin bioluminescence (human MCH-2R [4]): 510 nM
B11: SEQ. ID. NO. 9 (Ac-D-Phe^6 analog of Ac-hMCH(6-16)-NH2) (peptide)
peptide: XCMLGRVYRPC
HELM: PEPTIDE1{[ac].[dF].C.M.L.G.R.V.Y.R.P.C.[am]}$PEPTIDE1,PEPTIDE1,3:R3-12:R3$$$V2.0
SMILES: CSCC[C@@H]1NC(=O)[C@@H](NC(=O)[C@@H](Cc2ccccc2)NC(C)=O)CSSC[C@@H](C(N)=O)NC(=O)[C@@H]2CCCN2C(=O)[C@H](CCCNC(=N)N)NC(=O)[C@H](Cc2ccc(O)cc2)NC(=O)[C@H](C(C)C)NC(=O)[C@H](CCCNC(=N)N)NC(=O)CNC(=O)[C@H](CC(C)C)NC1=O

The next lines start with the binder.

B1: SEQ. ID. NO. 4 (D-Arg^6 analog lacking an Ac group) (peptide)
peptide: XCMLGRVYRPC
modifications: D-Arg at position 6, no acetyl; C-terminal amide; disulfide cycle
- IC50 (human MCH-2R [1]): 47 nM
- IC50 (human MCH-1R [2]): 0.35 nM
- Activation %, aequorin bioluminescence (human MCH-1R [3]): 130%
- EC50, aequorin bioluminescence (human MCH-1R [3]): 107 nM
- EC50, aequorin bioluminescence (human MCH-2R [4]): 55 nM

B4: SEQ. ID. NO. 5 (Ac-D-Arg^6 analog of Ac-hMCH(6-16)-NH2) (peptide)
peptide: XCMLGRVYRPC
modifications: N-terminal acetyl; D-Arg at position 6; C-terminal amide; disulfide cycle
- Activation %, aequorin bioluminescence (human MCH-1R [3]): 97%

B9: SEQ. ID. NO. 6 (Ac-D-Ala^6 analog of Ac-hMCH(6-16)-NH2) (peptide)
peptide: XCMLGRVYRPC
HELM: PEPTIDE1{[ac].[dA].C.M.L.G.R.V.Y.R.P.C.[am]}$PEPTIDE1,PEPTIDE1,3:R3-12:R3$$$V2.0
SMILES: CSCC[C@@H]1NC(=O)[C@@H](NC(=O)[C@@H](C)NC(C)=O)CSSC[C@@H](C(N)=O)NC(=O)[C@@H]2CCCN2C(=O)[C@H](CCCNC(=N)N)NC(=O)[C@H](Cc2ccc(O)cc2)NC(=O)[C@H](C(C)C)NC(=O)[C@H](CCCNC(=N)N)NC(=O)CNC(=O)[C@H](CC(C)C)NC1=O
- IC50 (human MCH-2R [1]): 2700 nM
- IC50 (human MCH-1R [2]): 0.77 nM
- Activation %, aequorin bioluminescence (human MCH-1R [3]): 109%
- EC50, aequorin bioluminescence (human MCH-1R [3]): 160 nM
- Activation %, aequorin bioluminescence (human MCH-2R [4]): 51%
- EC50, aequorin bioluminescence (human MCH-2R [4]): 4900 nM

B10: SEQ. ID. NO. 3 (Gva^6 analog of Ac-hMCH(6-16)-NH2) (peptide)
peptide: XCMLGRVYRPC
modifications: position 6 is Gva, des-amino-arginine (5-guanidinovaleric acid), no acetyl; C-terminal amide; disulfide cycle
- Activation %, aequorin bioluminescence (human MCH-1R [3]): 49%
- Activation %, aequorin bioluminescence (human MCH-2R [4]): 102%
